Target: PvdJ-eGFP (Pseudomonas aeruginosa PAO1)
Assay: FRET or BRET

B1: PvdA-mCherry (enzyme)
chain: MTQATATAVVHDLIGVGFGPSNIALAIALQERAQAQGALEVLFLDKQGDYRWHGNTLVSQSELQISFLKDLVSLRNPTSPYSFVNYLHKHDRLVDFINLGTFYPCRMEFNDYLRWVASHFQEQSRYGEEVLRIEPMLSAGQVEALRVISRNADGEELVRTTRALVVSPGGTPRIPQVFRALKGDGRVFHHSQYLEHMAKQPCSSGKPMKIAIIGGGQSAAEAFIDLNDSYPSVQADMILRASALKPADDSPFVNEVFAPKFTDLIYSREHAERERLLREYHNTNYSVVDTDLIERIYGVFYRQKVSGIPRHAFRCMTTVERATATAQGIELALRDAGSGELSVETYDAVILATGYERQLHRQLLEPLAEYLGDHEIGRDYRLQTDERCKVAIYAQGFSQASHGLSDTLLSVLPVRAEEISGSLYQHLKPGTAARALHEHALAS
Q: For B1, which shortening of the donor fluorescence lifetime against PvdJ-eGFP alone is on record?
A: Its shortening of the donor fluorescence lifetime against PvdJ-eGFP alone is 10 to 15%.

Reference: doi:10.1101/438713
